Measured values taken from US20130040825A1, “DNA DAMAGE DETECTION ASSAY AND METHOD” (priority 2011, published 2013).

Key:
naked DNA = assay: PADDA detection of cytosine deamination after exposure of naked DNA to serial dilutions of sodium bisulfite; format: biochemical; details: serial dilutions (FIG. 6)
CAN1 gene = assay: q-PADDA quantification of induced DNA damage after in vitro exposure of cloned CAN1 plasmid DNA; format: biochemical, Saccharomyces cerevisiae
Protocol: We quantified induced DNA damage after in vitro and/or in vivo exposure to a dose escalation of H2O2 (1 μM to 500 mM) and methyl methanosulfonate (MMS) (1 mM to 1 M). For in vitro assays, a 1,750 bp fragment of the CAN1 gene was amplified by PCR and cloned into the pJET1.2 vector (Fermentas, Glenn Burie, Md.) using standard protocols. Plasmid DNA was sequence verified, extracted using CsCl and dialyzed overnight against 500 ml H2O. Five μg of dialyzed DNA were treated with H2O2 in the presence of 0.3 M sucrose and 100 μM Fe^2+ as described (84), or with MMS in water (85). Treated DNA was recovered by ethanol precipitation. For in vivo induced DNA damage assays, BER− cells in logarithmic phase were treated with varying doses and times of MMS as described (85). For a control, cells were treated with water in place of MMS. Genomic DNA was extracted as described above, except MMS concentration was kept constant during spheroplasting. […] Control samples were processed as treated samples except water was added in place of the specific genotoxic. Experiments were repeated at least in triplicate. For high-throughput damage quantification, the highly purified streptavidin bound extended products were re-suspended in 50 μl TE and amplified by Real-Time PCR using one of 2 Real-Time PCR detection Systems: IQ5 Real-Time PCR detection System or Qx100 digital droplet PCR system.
For the IQ5 Real-Time PCR detection System using Sybr Green, reactions were carried out in an in a 25 μl final volume with PCR buffer (40 mM Tricine-KOH (pH 8.0), 16 mM KCl, 3.5 mM MgCl2, 3.75 μg/ml bovine serum albumin), 1:75,000 dilution SYBR Green I (Invitrogen), 0.8 mM total dNTPs (Fermentas), 0.7 units JUMPSTART Taq polymerase (Sigma), 0.32 μM each oligo, and 1/32 of total extended product pool. Amplification was monitored and analyzed by measuring the intercalation of the fluorescent dye to double-stranded DNA according to the manufacturer's instructions. To quantify damage on each strand of the yeast CAN1 gene, two fragments of different lengths located in the same genomic region were amplified. The long fragment (513 to 628 bases) was used to assess damage quantification. The short fragment (67 to 68 bases), representing undamaged DNA, was used as an internal normalization control. The PCR conditions for the different fragments were optimized to achieve similar amplification efficiencies required to compare different amplicons. All products were amplified under the following conditions: 95° C., 3 min; 40 cycles (95° C., 15 s; 63° C., 40 s). Each sample was assayed in at least three independent experiments, each with at least four wells per sample, from three separate yeast cultures and DNA extractions. […]

BER− cells = assay: q-PADDA quantification of in vivo induced DNA damage in BER− cells in logarithmic phase; format: cell-based, Saccharomyces cerevisiae; details: BER− yeast cells (FIG. 4A, 4B)
Protocol: We quantified induced DNA damage after in vitro and/or in vivo exposure to a dose escalation of H2O2 (1 μM to 500 mM) and methyl methanosulfonate (MMS) (1 mM to 1 M). For in vitro assays, a 1,750 bp fragment of the CAN1 gene was amplified by PCR and cloned into the pJET1.2 vector (Fermentas, Glenn Burie, Md.) using standard protocols. Plasmid DNA was sequence verified, extracted using CsCl and dialyzed overnight against 500 ml H2O. Five μg of dialyzed DNA were treated with H2O2 in the presence of 0.3 M sucrose and 100 μM Fe^2+ as described (84), or with MMS in water (85). Treated DNA was recovered by ethanol precipitation. […] For high-throughput damage quantification, the highly purified streptavidin bound extended products were re-suspended in 50 μl TE and amplified by Real-Time PCR using one of 2 Real-Time PCR detection Systems: IQ5 Real-Time PCR detection System or Qx100 digital droplet PCR system.
For the IQ5 Real-Time PCR detection System using Sybr Green, reactions were carried out in an in a 25 μl final volume with PCR buffer (40 mM Tricine-KOH (pH 8.0), 16 mM KCl, 3.5 mM MgCl2, 3.75 μg/ml bovine serum albumin), 1:75,000 dilution SYBR Green I (Invitrogen), 0.8 mM total dNTPs (Fermentas), 0.7 units JUMPSTART Taq polymerase (Sigma), 0.32 μM each oligo, and 1/32 of total extended product pool. […] The long fragment (513 to 628 bases) was used to assess damage quantification. […]

Vent exo− = target: T1, Vent exo− (Thermococcus litoralis, UniProt P30317, D141A/DEL1082-1471/DEL495-1032/E143A); assay: f-PADDA primer extension on synthetic oligonucleotides containing a single engineered lesion; format: biochemical; details: for lesion detected in primer extensions (sensitivity of PADDA): engineered lesion in 64 base template, at least 20 independent events per lesion; for Lesion Bypass with Misincorporation (LBM): misincorporation without replicative arrest; for Stops with Misincorporation (SMs): replicative arrest with misincorporation opposite the damaged base; for Stops: replicative arrest without misincorporation; for lesion acting as Vent exo− blocking lesion: share of all primer extensions
T1 construct: Vent exo−, a truncated form of a native DNA polymerase (Vent, NEB); purchased NEB
T1 sequence (P30317 other isoform, or with tags, fused parts or gaps D141A/E143A/DEL495-1032/DEL1082-1471): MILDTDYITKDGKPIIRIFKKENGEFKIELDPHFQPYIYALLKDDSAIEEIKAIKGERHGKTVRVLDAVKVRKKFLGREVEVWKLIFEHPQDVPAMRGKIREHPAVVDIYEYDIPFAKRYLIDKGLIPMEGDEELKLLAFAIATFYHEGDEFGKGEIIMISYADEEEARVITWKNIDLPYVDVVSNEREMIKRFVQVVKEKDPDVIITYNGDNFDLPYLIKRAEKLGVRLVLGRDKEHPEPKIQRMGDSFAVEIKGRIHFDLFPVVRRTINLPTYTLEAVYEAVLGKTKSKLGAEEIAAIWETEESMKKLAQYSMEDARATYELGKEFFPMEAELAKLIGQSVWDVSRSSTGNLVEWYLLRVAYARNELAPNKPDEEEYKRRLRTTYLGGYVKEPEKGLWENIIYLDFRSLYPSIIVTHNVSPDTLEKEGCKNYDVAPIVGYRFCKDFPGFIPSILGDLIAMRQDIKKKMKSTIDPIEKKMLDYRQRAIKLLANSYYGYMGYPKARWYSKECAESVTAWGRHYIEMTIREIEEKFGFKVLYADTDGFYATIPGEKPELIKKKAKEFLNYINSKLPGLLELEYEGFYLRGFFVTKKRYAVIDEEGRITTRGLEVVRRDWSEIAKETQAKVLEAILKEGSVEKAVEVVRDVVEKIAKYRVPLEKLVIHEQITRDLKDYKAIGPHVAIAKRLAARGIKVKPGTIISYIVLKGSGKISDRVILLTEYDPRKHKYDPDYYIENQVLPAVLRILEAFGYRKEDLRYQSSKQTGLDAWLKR
Protocol: A single non-cycled primer-extension reaction in the region of interest was performed to screen for DNA damage. It will be understood that the presently disclosed and claimed inventive concepts are not limited to these oligonucleotides. For damage detection in synthetic DNA, we prepared a 22.8 μl primer extension reaction containing 1× Thermopol buffer (NEB, Ipswich, Mass.), 0.2 mM each dNTP (Fermentas, Glen Burie, Md.), 20 pmol of a 5-biotin-tagged primer, and 20 pmol of a 64 base template containing either a synthetic abasic or 8-OxoG lesion, along with a control (undamaged oligo). To generate a pool of biotin-tagged extended products (FIG. 1A), the mix was incubated at 94° C. for 3 min, held at 85° C. to add 0.08 U of Vent exo− (NEB), and then incubated at 58° C. for 2 min (annealing), and 75° C. for 2 min (extension). For damage detection in genomic DNA, we used 500 ng of S. cerevisiae genomic DNA, 0.8 U of Vent exo−, and 2 pmol of a 5-biotin-tagged gene specific primer. A sample containing all reagents except Vent exo− was used as a negative control for all experiments. The non-cycled primer-extension contrasts with the multiple-cycle primer-extension reaction of previous assays, and generates a pool of highly specific biotin-tagged extended products (EPs), each of them derived from a single DNA molecule and strand (FIG. 1A). The use of a 5-biotin-tagged sequence specific primer allows for subsequent steps aimed at reducing the background of the technique. Vent exo−, a truncated form of a native DNA polymerase (Vent, NEB), was chosen for this assay instead of the currently used Sequenase (13) or Taq DNA polymerase (14), because of its reported high sensitivity to detect DNA damage (21) and primer-extension efficiency (22-24). To optimize primer-extension performance, Vent exo− units were adjusted to the complexity of the DNA being screened (22).
For the purpose of mapping strand-specific nucleotide damage (f-PADDA), the 3′-end of the highly purified extended products was attached to the 5′-end of a chemically modified adapter-primer using Thermophage single-stranded DNA ligase (Prokaria, Reykjavik, Iceland) [Currently Circligase I from Epicentre, Madison, Wis.]. Thermophage was chosen for this reaction because its efficiency for single-strand ligation is higher than that of T4 RNA ligase (25) used in some PCR-based assays. […] Purified extended-products were first washed with 20 μl of 1× Thermophage ssDNA ligase buffer and then resuspended in 3.7 μl of 1× Thermophage ssDNA ligase buffer. The ligation was performed as recommended by Prokaria except 1.5 μM adapter and 10 U ssDNA ligase in a final 10 μl volume were used under the following conditions: 55° C. for 1 h, 65° C. for 15 min, and 70° C. for 15 min. Then, samples were spun briefly and the supernatant removed as before in the presence of a magnet. The adapter-ligated extended-products were washed with 1 ml of 2× B&W buffer, and then incubated with 1 ml of 0.5 M NaOH for 5 min to completely remove free adapters and non-specifically bound DNA. Finally, the supernatant was discarded and the bound products were washed with 200 μl of 2× B&W buffer. The adapter-linked extended-products pool was then washed with 20 μl of 1× Phusion HF PCR buffer and amplified for 35-cycles using Phusion Hot-Start DNA Polymerase (Finnzymes), an oligonucleotide complementary to the adapter-primer and a nested gene-specific primer according to the manufacturer's instructions. Phusion Hot-Start DNA Polymerase has the highest available accuracy (error rate=4.4×10^−7) and generates blunt-end products. After PCR amplification, the supernatant was collected under a magnetic field for use in cloning (CLONE JET PCR cloning kit, Fermentas) and transformation following standard procedures. This cloning strategy yields 99% of clones positive for a cloned insert. […]

Molecule: O=S([O-])O.[Na+] [sodium bisulfite]
- DNA change induced in naked DNA (naked DNA): deamination of unmethylated cytosines to uracil

Molecule: OO [H2O2, Hydrogen peroxide]
- total CAN1 DNA damage compared to the control (CAN1 gene; each dose escalation from 1 μM to 500 mM): significant increase in total CAN1 DNA damage
- lowest dose giving a significant increase in damage, NTS (CAN1 gene; non-transcribed strand of CAN1, p<0.005): 1 µM
- lowest dose giving a significant increase in damage, TS (CAN1 gene; transcribed strand of CAN1, p<0.005): 10 µM

Molecule: COS(C)(=O)=O [MMS, methyl methanosulfonate]
- in vitro DNA damage induced by dose escalation (CAN1 gene; dose escalation (FIG. 5)): increase in in vitro DNA damage
- in vivo DNA damage induced by dose escalation or by increase in exposure time (BER− cells): increase in in vivo DNA damage

B1: Abasic sites: 64 base synthetic template oligonucleotide with a single abasic site (dSpacer tetrahydrofuran analog) (nucleic acid)
DNA: CCACTCTCCATGCACATAACAGACTTGGCTCACCTGCACTCAGGAAGCCCAGGTGGAAGCCAT
modifications: abasic tetrahydrofuran site, further chemistry not given here
- lesion detected in primer extensions (sensitivity of PADDA) (Vent exo−): 100%
- Lesion Bypass with Misincorporation (LBM) (Vent exo−): 5%
- Stops with Misincorporation (SMs) (Vent exo−): 50%
- Stops (Vent exo−): 45%
- lesion acting as Vent exo− blocking lesion (Vent exo−): 95%

B2: 8-OxoG lesion: synthetic template oligonucleotide containing a single 7,8-dihydro-8-oxo-2′-deoxyguanosine (8-oxo-dG) (nucleic acid)
DNA: CCACTCACCNTGCACATAACAGACTTGGCTGTCCCAGACTGCAGGAAGCCCAGGTGGAAGCCAT
modifications: 8-oxo-dG lesion, chemistry not fully specified
- Bypass by Vent exo− without misincorporation (Vent exo−): 15%
- lesion detected in primer extensions (sensitivity of PADDA) (Vent exo−): 85%
- Lesion Bypass with Misincorporation (LBM) (Vent exo−): 62%
- Stops with Misincorporation (SMs) (Vent exo−): 15%
- Stops (Vent exo−): 8%
- lesion acting as Vent exo− blocking lesion (Vent exo−): 23%

B3: 8-oxo-dA lesion: synthetic template oligonucleotide containing a single 7,8-dihydro-8-oxo-2′-deoxyadenosine (8-oxo-dA) (nucleic acid)
DNA: CCACTCTCCATGCACATAACAGACTTGGCTGTGCNCGGTGCTCAGGAAGCCCAGGTGGAAGCCAT
modifications: 8-oxo-dA lesion, chemistry not fully specified
- lesion detected in primer extensions (sensitivity of PADDA) (Vent exo−): 100%
- Stops with Misincorporation (SMs) (Vent exo−): 10%
- Stops (Vent exo−): 90%
- lesion acting as Vent exo− blocking lesion (Vent exo−): 100%

B4: thymine glycol lesion: synthetic template oligonucleotide containing a single 5R,6S-dihydroxy-5,6-dihydrothymine (thymine glycol) (nucleic acid)
DNA: CCACTCACCGGCACATAACAGACTTGGCTGTCCCAGACTGCAGGAAGCCCAGGTGGAAGCCAT
modifications: thymine glycol lesion, further chemistry not given here
- lesion detected in primer extensions (sensitivity of PADDA) (Vent exo−): 67%
